In paper PMC4854876:

Biological target: human hemoglobin (human) (UniProt P69905)
Experiment: SPR

UniProt P69905, sequence (P69905 whole entry, chain 1 of 2): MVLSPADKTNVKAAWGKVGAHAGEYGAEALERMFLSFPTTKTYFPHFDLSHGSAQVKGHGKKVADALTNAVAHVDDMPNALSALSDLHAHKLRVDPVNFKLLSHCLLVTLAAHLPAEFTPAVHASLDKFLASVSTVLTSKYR
UniProt P69905, sequence (P68871 whole entry, chain 2 of 2, further chain): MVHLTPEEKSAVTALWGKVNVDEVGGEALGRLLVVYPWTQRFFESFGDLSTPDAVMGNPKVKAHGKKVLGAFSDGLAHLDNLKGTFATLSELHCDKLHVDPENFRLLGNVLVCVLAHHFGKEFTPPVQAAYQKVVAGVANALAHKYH

With “Spbhp-37 recombinant protein without the GST tag (natural protein)” as the substance, how does the Kd read?
Its Kd is 357 nM.
